# Patent US20210380703A1
# Changes are numbered by the printed parent chain.
# B1: 371_B07 (antibody, V domains shown)
# VH: EVQLLESGGGLVQPGGSLRLSCAASGFTFDSYSMNWVRQAPGKGLEWVAGINYNGGYTSYADSVKGRFTISRDNSKNTLYLQMNSLRAEDTAVYYCARSANWHDTALDYWGQGTLVTVSS
# VL: DIQMTQSPSSLSASVGDRVTITCRASQSILTYVNWYQQKPGKAPKLLIYAATSRASGVPSRFSGSGSGTDFTLTISSLQPEDFATYYCQQSYELPLTFGGGTKVEIK
# B2: 372_B04 (antibody, V domains shown)
# VH: B1 VH with S33G, G50N
# VL: B1 VL with T31S, L47V, R54L, E93D, L94S
# B3: 371_F08 (antibody, V domains shown)
# VH: B1 VH with S31D, A49S, S59G
# VL: B1 VL with L30V, T31S, L47V, A55H, L94S
# B4: 371_G10 (antibody, V domains shown)
# VH: B1 VH with D30S, A49S, T58K
# VL: B1 VL with L30S, T31S, A55H, Y92D, E93D, L94S
# B5: 373_A08 (antibody, V domains shown)
# VH: B1 VH with S33G, A49S, G50N, S59G
# VL: B1 VL with L30V, T31S, R54L, E93S
# B6: 372_F06 (antibody, V domains shown)
# VH: B1 VH with D30S, S31D, S33G, T58K
# VL: B1 VL with T31S, R54L, L94T
# B7: 373_B04 (antibody, V domains shown)
# VH: B1 VH with D30S, S33G, G55S, T58K, S59G
# VL: B1 VL with V33L, L94T
# B8: 372_A04 (antibody, V domains shown)
# VH: B1 VH with A49S, G55S
# VL: B1 VL with V33L, L47V, L94T
# B9: 371_F04 (antibody, V domains shown)
# VH: B1 VH with G55S, T58K, S59G
# VL: B1 VL with T31S, V33L, A55H, E93N, L94N
# B10: 371_D09 (antibody, V domains shown)
# VH: B1 VH with D30S, A49S, G50N, G55S, S59G
# VL: B1 VL with V33L, L47V, E93N, L94N
# B11: 372_C07 (antibody, V domains shown)
# VH: B1 VH with D30S, S31D, A49S, G50N, G55S, A106H
# VL: B1 VL with T31S, V33L, L47V, A55H, Y92D, E93N, L94T
# B12: 372_D02 (antibody, V domains shown)
# VH: B1 VH with D30S, S33G, N35H, S59G
# VL: B1 VL with V33L, L47V, E93D, L94N
# B13: 373_A10 (antibody, V domains shown)
# VH: B1 VH with D30S, S33G, A49S, G55S
# VL: B1 VL with T31S, V33L, L47V, E93D
# B14: 371_F06 (antibody, V domains shown)
# VH: B1 VH with G50N
# VL: B1 VL with L30V, T31S, V33L, L47V, A55H, E93N, L94S
# B15: 372_F08 (antibody, V domains shown)
# VH: B1 VH with D30S, S31D, A49S, G50N, G55S, S59G
# VL: B1 VL with L47V, E93D, L94T
# B16: 371_F01 (antibody, V domains shown)
# VH: B1 VH with D30S, S59G
# VL: B1 VL with L47V, R54L, E93N, L94N
# B17: 371_H09 (antibody, V domains shown)
# VH: B1 VH with A49S, G50N
# VL: B1 VL with L47V, R54L, E93D, L94S
# B18: 372_F03 (antibody, V domains shown)
# VH: B1 VH with D30S, S33G
# VL: B1 VL with T31S, V33L, L47V, E93D, L94T
# Target: Human Fc (human)
# Assay: ELISA, negative control
row,optical density [OD],Binder
1,0.308,B1
2,0.333,B2
3,0.301,B3
4,0.439,B4
5,0.195,B5
6,0.38,B6
7,0.176,B7
8,0.339,B8
9,0.345,B9
10,0.268,B10
11,0.279,B11
12,0.433,B12
13,0.175,B13
14,0.289,B14
15,0.335,B15
16,0.41,B16
17,0.32,B17
18,0.438,B18
